The values that follow come from patent US20050069542A1 (Human Genome Sciences, published 2005).

This experiment deals with T1, flag-tagged soluble TL3 (amino acids 105-251 of SEQ ID NO:234) (Homo sapiens (Human), UniProt O75888 105-250).
T1 construct: Heterologous flag-tagged control protein, immobilized in the ELISA; also called flagged tagged TL-3; not shown: Flag tag
T1 sequence: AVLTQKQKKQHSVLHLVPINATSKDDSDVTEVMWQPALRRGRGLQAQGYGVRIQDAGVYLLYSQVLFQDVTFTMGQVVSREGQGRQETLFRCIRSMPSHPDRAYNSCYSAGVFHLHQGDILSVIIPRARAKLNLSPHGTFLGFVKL
Put plainly: phage ELISA on immobilized flag-tagged soluble TL3. The method, then:
The individual phage isolates in the panel of phage, each phage expressing a unique scFv that bound to flag-tagged GMAD, were tested to ensure specificity for GMAD using an ELISA assay. The scFvs were tested in an ELISA for their ability to bind a heterologous flag-tagged protein, in this case—immobilized soluble TL3 (amino acids 105-251 of SEQ ID NO:234, GenBank Accesion Number NP_{—}003799, also described in International Patent Application Publication Number WO97/33902 and WO2001/96528 which are herein incorporated by reference in their entireties).

B1: GMBC603 (scFv)
scFv: QVQLVQSGGGVVRPGGSLRLSCAASGFTFDDYGMSWVRQAPGKGLEWVSGINWNGGSTGYADSVKGRFTISRDNAKNSLYLQMNSLRAEDTALYYCAKDLNYDFWSGSGMDVWGRGTLVTVSSGGGGSGGGGSGGGGSQSVLTQPASVSGSPGQSITISCTGTSSDVGGYNYVSWYQQHPGKAPKLMIYEGSKRPSGVSNRFSGSKSGNTASLTISGLQAEDEADYYCSSYTTRSTRVFGGGTKLTVLG
B1: the binding result is reported as “no binding”.

B2: GMBC692 (scFv)
scFv: EVQLVQSGGGLVKPGGSLRLSCAASGFTFSDAWMNWVRQAPGKGLEWVGRIKSKGSGGTIDYAAPVKDRFTISRDDSKNTLYLQMNSLKTEDTALYYCTWDWDFYYGMNVWGRGTLVTVSSGGGGSGGGGSGGGGSQSVLTQPASVSGSPGQSITISCTGTSSDVGGYNYVSWYQQHPGKAPKLMIYEGSKRPSGVSNRFSGSKSGNTASLTISGLQAEDEADYYCSSYTTRSTRVFGGGTKLTVLG
As for B2, the binding result is reported as “no binding”.

B3: GMBC616 (scFv)
scFv: EVQLVESGGGLVKPGGSLRLSCAASGFTFSDAWMNWVRQAPGKGLEWVGRIKSKGSGGTTDYAAPVKDRFTISRDDSENTLYLQMNSLKTEDTAVYYCTWDHSYYYDMAVWGRGTLVTVSSGGGGSGGGGSGGGGSQSVLTQPPFVSGSPGQSITISCTGTSSDVGGYNYVSWYQQHPGKAPKLMIYEGSKRPSGVSNRFSGSKSGNTASLTISGLQAEDEADYYCSSYTTRSTRVFGGGTKLTVLG
Consider B3, for which the binding result is given as “no binding”.

B4: GMBC607 (scFv)
scFv: EVQLVQSGGGLVKPGGSLRLSCAASGFTFSDAWMNWVRQAPGKGLEWVGRIKSKGSGGTIDYAAPVKDRFTISRDDSKNMLYLEMNSLKTEDTALYYCTWDWDFYYGMNVWGQGTMVTVSSGGGGSGGGGSGGGGSQSVLTQPASVSGSPGQSITISCTGTSSDVGDYNYVSWYQQHPGKAPKLMIYEGSKRPSGVSNRFSGSKSGNTASLTISGLQAEDEADYYCSSYTTRSTRVFGGGTKLTVLG
For the molecule B4, the binding result is given as “no binding”.

B5: GMBC615 (scFv)
scFv: EVQLVESGGGLVKPGGSLRLSCAASGFKFSDAWMNWVRQAPGKGLEWVGRIKSKGSGGTIDYAAPVKDRFTISRDDSKNTLYLQMNSLKTEDTALYYCTWDWDFYYGMNVWGKGTLVAVSSGGGGSGGGGSGGGGSQSVLTQPASVSGSPGQSITISCTGTSSDVGGYNYVSWYQQHPGKAPKLMIYEGSKRPSGVSNRFSGSKSGNTASLTISGLQAEDEADYYCSSYTTRSTRVFGGGTKLTVLG
Take B5: the binding result was “no binding”.

B6: GMBC614 (scFv)
scFv: EVQLVQSGGGLVKPGGSLRLSCAASGFTFSDAWMNWVRQAPGKGLEWVGRIKSKGSGGTIDYAAPVKDRFTISRDDSKNTLYLQMNSLKTEDTALYYCTWDWDFYYGMNVWGRGTMVTVSSGGGGSGGGGSGGGGSQSVLTQPASVSGSPGQSITISCTGTSSDVGGYNYVSWYQQHPGKAPKLMIYEGSKRPSGVSNRFSGSKSGNTASLTISGLQAEDEADYYCSSYTTRSTRVFGGGTKLTVLG
Take B6: the binding result is recorded as “no binding”.

B7: GMBC605 (scFv)
scFv: QVQLVQSGGGLVKPGGSLRLSCETSGFKFSDAWMNWVRQAPGKGLEWVGRIKSKGSGGTIDYAAPVKDRFTISRDDSKNTLYLQMNSLKTEDTALYYCTWDWDFYYGMNVWGRGTLVTVSSGGGGSGGGGSGGGGSQSVLTQPASVSGSPGQSITISCTGTSSDVGGYNYVSWYQQHPGKAPKLMIYEGSKRPSGVSNRFSGSKSGNTASLTISGLQAEDEADYYCSSYTTRSTRVFGGGTKLTVLG
On to B7, for which the binding result is given as “no binding”.

B8: GMBC613 (scFv)
scFv: KVQLVESGGGLVQPGGSLRLSCAASGFTISSHWMSWVRQAPGKGLEWVASIKQDGREKHFVDSVKGRFSISRDNAKNSLYLQMNSLRTEDTAVYYCARETYGGYYYYFMDVWGKGTLVTVSSGGGGSGGGGSGGGGSSELTQDPAVSVALGQTVRITCQGDSLRSYYASWYQQKPGQAPVLVIYGKNNRPSGIPDRFSGSSSGNTASLTITGAQAEDEADYYCNSRDSSGNHVVFGGGTKLTVLG
In the case of B8, the binding result was “no binding”.
